Reference: the supplement of paper PMC5998384

Experiments:
[1] = system: HeLa Kyoto; assay: solubility in G1/S (NP-40 vs SDS abundance) (log2 ratio); higher = more soluble; details: cell cycle stage: G1/S
[2] = system: HeLa Kyoto; assay: melting temperature (median over replicates), in situ; higher = more thermally stable
[3] = system: HeLa Kyoto; assay: solubility change mitosis vs G1/S (difference of NP-40 vs SDS log2 ratios) (log2 ratio difference); higher = more soluble in mitosis
[4] = system: HeLa Kyoto; assay: thermal stability score vs G1/S (z-score of summed log2 fold changes over temperatures); higher = more thermally stable than in G1/S
[5] = cell cycle stage: early G1 (4.5 h after nocodazole release)
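For melting temperature (median over replicates), in situ in this document: HeLa Kyoto cells synchronized by double thymidine or nocodazole block, proteins quantified by TMT10plex mass spectrometry, three independent biological replicates.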
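For solubility change mitosis vs G1/S (difference of NP-40 vs SDS log2 ratios) in this document: synchronized HeLa Kyoto cells (double thymidine block for G1/S, nocodazole release for mitosis), protein amounts in NP-40 versus SDS lysates quantified by mass spectrometry, three biological replicates.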
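For solubility in G1/S (NP-40 vs SDS abundance) in this document: HeLa Kyoto cells arrested at G1/S by double thymidine block, proteins quantified by TMT10plex mass spectrometry in mild NP-40 versus SDS extracts, three biological replicates.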
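For thermal stability score vs G1/S (z-score of summed log2 fold changes over temperatures) in this document: synchronized HeLa Kyoto cells, proteins quantified by TMT10plex mass spectrometry, three biological replicates, mitosis taken 0.5 h after nocodazole release, G1/S directly after double thymidine block.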

| Sequence | solubility in G1/S (log2) [1] | melting temperature ([2]; cell cycle stage: G1/S) | melting temperature ([2]; cell cycle stage: mitosis) | solubility change mitosis (log2) [3] | thermal stability score [4, 5] | thermal stability score ([4]; cell cycle stage: mitosis) |
| --- | --- | --- | --- | --- | --- | --- |
| MVWPWVAMASRWGPLIGLAPCCLWLLGAVLLMDASARPANHSSTRERVANREENEILPPDHLNGVKLEMDGHLNRGFHQEVFLGKDLGGFDEDAEPRRSRRKLMVIFSKVDVNTDRKISAKEMQRWIMEKTAEHFQEAMEESKTHFRAVDPDGDGHVSWDEYKVKFLASKGHSEKEVADAIRLNEELKVDEETQEVLENLKDRWYQADSPPADLLLTEEEFLSFLHPEHSRGMLRFMVKEIVRDLDQDGDKQLSVPEFISLPVGTVENQQGQDIDDNWVKDRKKEFEELIDSNHDGIVTAEELESYMDPMNEYNALNEAKQMIAVADENQNHHLEPEEVLKYSEFFTGSKLVDYARSVHEEF [SDF4] | 0.52 | 52.8 °C | 53.9 °C | -0.0276 | 2.12 | 3 |
| MWALCSLLRSAAGRTMSQGRTISQAPARRERPRKDPLRHLRTREKRGPSGCSGGPNTVYLQVVAAGSRDSGAALYVFSEFNRYLFNCGEGVQRLMQEHKLKVARLDNIFLTRMHWSNVGGLSGMILTLKETGLPKCVLSGPPQLEKYLEAIKIFSGPLKGIELAVRPHSAPEYEDETMTVYQIPIHSEQRRGKHQPWQSPERPLSRLSPERSSDSESNENEPHLPHGVSQRRGVRDSSLVVAFICKLHLKRGNFLVLKAKEMGLPVGTAAIAPIIAAVKDGKSITHEGREILAEELCTPPDPGAAFVVVECPDESFIQPICENATFQRYQGKADAPVALVVHMAPASVLVDSRYQQWMERFGPDTQHLVLNENCASVHNLRSHKIQTQLNLIHPDIFPLLTSFRCKKEGPTLSVPMVQGECLLKYQLRPRREWQRDAIITCNPEEFIVEALQLPNFQQSVQEYRRSAQDGPAPAEKRSQYPEIIFLGTGSAIPMKIRNVSATLVNISPDTSLLLDCGEGTFGQLCRHYGDQVDRVLGTLAAVFVSHLHADHHTGLPSILLQRERALASLGKPLHPLLVVAPNQLKAWLQQYHNQCQEVLHHISMIPAKCLQEGAEISSPAVERLISSLLRTCDLEEFQTCLVRHCKHAFGCALVHTSGWKVVYSGDTMPCEALVRMGKDATLLIHEATLEDGLEEEAVEKTHSTTSQAISVGMRMNAEFIMLNHFSQRYAKVPLFSPNFSEKVGVAFDHMKVCFGDFPTMPKLIPPLKALFAGDIEEMEERREKRELRQVRAALLSRELAGGLEDGEPQQKRAHTEEPQAKKVRAQ [ELAC2] | 0.0837 | 56.2 °C | 56.8 °C | -0.0127 | -1.66 | -2.38 |
| MWAVLRLALRPCARASPAGPRAYHGDSVASLGTQPDLGSALYQENYKQMKALVNQLHERVEHIKLGGGEKARALHISRGKLLPRERIDNLIDPGSPFLELSQFAGYQLYDNEEVPGGGIITGIGRVSGVECMIIANDATVKGGAYYPVTVKKQLRAQEIAMQNRLPCIYLVDSGGAYLPRQADVFPDRDHFGRTFYNQAIMSSKNIAQIAVVMGSCTAGGAYVPAMADENIIVRKQGTIFLAGPPLVKAATGEEVSAEDLGGADLHCRKSGVSDHWALDDHHALHLTRKVVRNLNYQKKLDVTIEPSEEPLFPADELYGIVGANLKRSFDVREVIARIVDGSRFTEFKAFYGDTLVTGFARIFGYPVGIVGNNGVLFSESAKKGTHFVQLCCQRNIPLLFLQNITGFMVGREYEAEGIAKDGAKMVAAVACAQVPKITLIIGGSYGAGNYGMCGRAYSPRFLYIWPNARISVMGGEQAANVLATITKDQRAREGKQFSSADEAALKEPIIKKFEEEGNPYYSSARVWDDGIIDPADTRLVLGLSFSAALNAPIEKTDFGIFRM [MCCC2] | 0.0208 | 53.2 °C | 53.7 °C | -0.128 | -3.15 | -2.72 |
| MWDQGGQPWQQWPLNQQQWMQSFQHQQDPSQIDWAALAQAWIAQREASGQQSMVEQPPGMMPNGQDMSTMESGPNNHGNFQGDSNFNRMWQPEWGMHQQPPHPPPDQPWMPPTPGPMDIVPPSEDSNSQDSGEFAPDNRHIFNQNNHNFGGPPDNFAVGPVNQFDYQHGAAFGPPQGGFHPPYWQPGPPGPPAPPQNRRERPSSFRDRQRSPIALPVKQEPPQIDAVKRRTLPAWIREGLEKMEREKQKKLEKERMEQQRSQLSKKEKKATEDAEGGDGPRLPQRSKFDSDEEEEDTENVEAASSGKVTRSPSPVPQEEHSDPEMTEEEKEYQMMLLTKMLLTEILLDVTDEEIYYVAKDAHRKATKAPAKQLAQSSALASLTGLGGLGGYGSGDSEDERSDRGSESSDTDDEELRHRIRQKQEAFWRKEKEQQLLHDKQMEEEKQQTERVTKEMNEFIHKEQNSLSLLEAREADGDVVNEKKRTPNETTSVLEPKKEHKEKEKQGRSRSGSSSSGSSSSNSRTSSTSSTVSSSSYSSSSGSSRTSSRSSSPKRKKRHSRSRSPTIKARRSRSRSYSRRIKIESNRARVKIRDRRRSNRNSIERERRRNRSPSRERRRSRSRSRDRRTNRASRSRSRDRRKIDDQRGNLSGNSHKHKGEAKEQERKKERSRSIDKDRKKKDKEREREQDKRKEKQKREEKDFKFSSQDDRLKRKRESERTFSRSGSISVKIIRHDSRQDSKKSTTKDSKKHSGSDSSGRSSSESPGSSKEKKAKKPKHSRSRSVEKSQRSGKKASRKHKSKSRSR [PNISR] | -0.83 | 59.9 °C | 54.5 °C | 0.456 | -6.44 | -8.27 |
| MWGSDRLAGAGGGGAAVTVAFTNARDCFLHLPRRLVAQLHLLQNQAIEVVWSHQPAFLSWVEGRHFSDQGENVAEINRQVGQKLGLSNGGQVFLKPCSHVVSCQQVEVEPLSADDWEILELHAVSLEQHLLDQIRIVFPKAIFPVWVDQQTYIFIQIVALIPAASYGRLETDTKLLIQPKTRRAKENTFSKADAEYKKLHSYGRDQKGMMKELQTKQLQSNTVGITESNENESEIPVDSSSVASLWTMIGSIFSFQSEKKQETSWGLTEINAFKNMQSKVVPLDNIFRVCKSQPPSIYNASATSVFHKHCAIHVFPWDQEYFDVEPSFTVTYGKLVKLLSPKQQQSKTKQNVLSPEKEKQMSEPLDQKKIRSDHNEEDEKACVLQVVWNGLEELNNAIKYTKNVEVLHLGKVWIPDDLRKRLNIEMHAVVRITPVEVTPKIPRSLKLQPRENLPKDISEEDIKTVFYSWLQQSTTTMLPLVISEEEFIKLETKDGLKEFSLSIVHSWEKEKDKNIFLLSPNLLQKTTIQVLLDPMVKEENSEEIDFILPFLKLSSLGGVNSLGVSSLEHITHSLLGRPLSRQLMSLVAGLRNGALLLTGGKGSGKSTLAKAICKEAFDKLDAHVERVDCKALRGKRLENIQKTLEVAFSEAVWMQPSVVLLDDLDLIAGLPAVPEHEHSPDAVQSQRLAHALNDMIKEFISMGSLVALIATSQSQQSLHPLLVSAQGVHIFQCVQHIQPPNQEQRCEILCNVIKNKLDCDINKFTDLDLQHVAKETGGFVARDFTVLVDRAIHSRLSRQSISTREKLVLTTLDFQKALRGFLPASLRSVNLHKPRDLGWDKIGGLHEVRQILMDTIQLPAKYPELFANLPIRQRTGILLYGPPGTGKTLLAGVIARESRMNFISVKGPELLSKYIGASEQAVRDIFIRAQAAKPCILFFDEFESIAPRRGHDNTGVTDRVVNQLLTQLDGVEGLQGVYVLAATSRPDLIDPALLRPGRLDKCVYCPPPDQVSRLEILNVLSDSLPLADDVDLQHVASVTDSFTGADLKALLYNAQLEALHGMLLSSGLQDGSSSSDSDLSLSSMVFLNHSSGSDDSAGDGECGLDQSLVSLEMSEILPDESKFNMYRLYFGSSYESELGNGTSSDLSSQCLSAPSSMTQDLPGVPGKDQLFSQPPVLRTASQEGCQELTQEQRDQLRADISIIKGRYRSQSGEDESMNQPGPIKTRLAISQSHLMTALGHTRPSISEDDWKNFAELYESFQNPKRRKNQSGTMFRPGQKVTLA [PEX1] | -0.083 | 51.2 °C | 50.6 °C | -0.0568 | -0.296 | -0.803 |
| MWIPVVGLPRRLRLSALAGAGRFCILGSEAATRKHLPARNHCGLSDSSPQLWPEPDFRNPPRKASKASLDFKRYVTDRRLAETLAQIYLGKPSRPPHLLLECNPGPGILTQALLEAGAKVVALESDKTFIPHLESLGKNLDGKLRVIHCDFFKLDPRSGGVIKPPAMSSRGLFKNLGIEAVPWTADIPLKVVGMFPSRGEKRALWKLAYDLYSCTSIYKFGRIEVNMFIGEKEFQKLMADPGNPDLYHVLSVIWQLACEIKVLHMEPWSSFDIYTRKGPLENPKRRELLDQLQQKLYLIQMIPRQNLFTKNLTPMNYNIFFHLLKHCFGRRSATVIDHLRSLTPLDARDILMQIGKQEDEKVVNMHPQDFKTLFETIERSKDCAYKWLYDETLEDR [TFB2M] | 0.194 | 50.5 °C | 50.7 °C | -0.038 | 0.218 | 1 |
| MWLAAAAPSLARRLLFLGPPPPPLLLLVFSRSSRRRLHSLGLAAMPEKRPFERLPADVSPINYSLCLKPDLLDFTFEGKLEAAAQVRQATNQIVMNCADIDIITASYAPEGDEEIHATGFNYQNEDEKVTLSFPSTLQTGTGTLKIDFVGELNDKMKGFYRSKYTTPSGEVRYAAVTQFEATDARRAFPCWDEPAIKATFDISLVVPKDRVALSNMNVIDRKPYPDDENLVEVKFARTPVMSTYLVAFVVGEYDFVETRSKDGVCVRVYTPVGKAEQGKFALEVAAKTLPFYKDYFNVPYPLPKIDLIAIADFAAGAMENWGLVTYRETALLIDPKNSCSSSRQWVALVVGHELAHQWFGNLVTMEWWTHLWLNEGFASWIEYLCVDHCFPEYDIWTQFVSADYTRAQELDALDNSHPIEVSVGHPSEVDEIFDAISYSKGASVIRMLHDYIGDKDFKKGMNMYLTKFQQKNAATEDLWESLENASGKPIAAVMNTWTKQMGFPLIYVEAEQVEDDRLLRLSQKKFCAGGSYVGEDCPQWMVPITISTSEDPNQAKLKILMDKPEMNVVLKNVKPDQWVKLNLGTVGFYRTQYSSAMLESLLPGIRDLSLPPVDRLGLQNDLFSLARAGIISTVEVLKVMEAFVNEPNYTVWSDLSCNLGILSTLLSHTDFYEEIQEFVKDVFSPIGERLGWDPKPGEGHLDALLRGLVLGKLGKAGHKATLEEARRRFKDHVEGKQILSADLRSPVYLTVLKHGDGTTLDIMLKLHKQADMQEEKNRIERVLGATLLPDLIQKVLTFALSEEVRPQDTVSVIGGVAGGSKHGRKAAWKFIKDNWEELYNRYQGGFLISRLIKLSVEGFAVDKMAGEVKAFFESHPAPSAERTIQQCCENILLNAAWLKRDAESIHQYLLQRKASPPTV [NPEPPS] | 0.0254 | 53.9 °C | 53.6 °C | -0.148 | -0.503 | -1.51 |
| MWSGRSSFTSLVVGVFVVYVVHTCWVMYGIVYTRPCSGDANCIQPYLARRPKLQLSVYTTTRSHLGAENNIDLVLNVEDFDVESKFERTVNVSVPKKTRNNGTLYAYIFLHHAGVLPWHDGKQVHLVSPLTTYMVPKPEEINLLTGESDTQQIEAEKKPTSALDEPVSHWRPRLALNVMADNFVFDGSSLPADVHRYMKMIQLGKTVHYLPILFIDQLSNRVKDLMVINRSTTELPLTVSYDKVSLGRLRFWIHMQDAVYSLQQFGFSEKDADEVKGIFVDTNLYFLALTFFVAAFHLLFDFLAFKNDISFWKKKKSMIGMSTKAVLWRCFSTVVIFLFLLDEQTSLLVLVPAGVGAAIELWKVKKALKMTIFWRGLMPEFQFGTYSESERKTEEYDTQAMKYLSYLLYPLCVGGAVYSLLNIKYKSWYSWLINSFVNGVYAFGFLFMLPQLFVNYKLKSVAHLPWKAFTYKAFNTFIDDVFAFIITMPTSHRLACFRDDVVFLVYLYQRWLYPVDKRRVNEFGESYEEKATRAPHTD [CLPTM1L] | -0.0724 | 52.8 °C | 53.2 °C | -0.226 | -1.1 | -1.25 |
